Experimental data published in US12559863B2, “Macrocyclic modulators of disease associated protein misfolding and aggregation” (RESQ BIOTECH, priority 2017, dated 2026).

How the values were obtained:
[1] = molecular target: T1, Aβ42-GFP (Homo sapiens, UniProt P05067); assay: High-throughput sequencing of pSICLOPPS vectors isolated after bacterial sorting for enhanced Aβ42-GFP fluorescence; conditions: for Reads/Total TXXXR reads (%): relative to total TXXXR reads; for Normalized read number (%): Table 3, cyclo-TXXR tetrapeptides
T1 construct: a chimeric fusion of the human Aβ(1-42) peptide (Aβ42) with GFP; expressed in transfected cells; host or cells: E. coli BL21(DE3)
Outline: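 E. coli BL21(DE3) expressing Aβ42-GFP from the T7 promoter was co-transformed with cyclic peptide libraries (0.002% L-arabinose, 0.1 mM IPTG at OD600 ~0.5, 37° C). High-fluorescence cells were sorted over repeated rounds. Plasmid peptide-encoding regions were then sequenced by Ion Torrent, discarding sequences with stop codons.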

[2] = molecular target: T2, SOD1(A4V)-GFP (Homo sapiens, UniProt P00441, A5V); assay: Fluorescence of E. coli cells co-expressing SOD1(A4V)-GFP and cyclic peptide; format: cell-based; conditions: co-expression of cyclic peptide; compared to random cyclic peptides from initial library
T2 construct: polyHis; expressed in transfected cells; host or cells: E. coli Origami 2(DE3) (BL21(DE3) for the FACS screen)
Excerpt: Electrocompetent E. coli BL21(DE3) cells (Novagen, USA) carrying either the expression vector pETSOD1(A4V)-GFP, which produces SOD1(A4V)-GFP under control of the strong bacteriophage T7 promoter, or pETAβ42-GFP, which produces Aβ42-GFP under control of the T7 promoter, were co-transformed with the combined pSICLOPPS-NuX1X2X3-X5 vector library. Approximately 10^8 transformants carrying both the vector library and either pETSOD1(A4V)-GFP or pETAβ42-GFP vectors were harvested, pooled together, and grown in Luria-Bertani (LB) liquid medium containing either 0.005% (pETSOD1(A4F)-GFP) or 0.002% (pETAβ42-GFP) L-arabinose—the inducer of cyclic peptide production—at 37° C. with shaking. When the optical density at 600 nm (OD600) of the bacterial culture was about 0.5, 0.01 (pETSOD1(A4F)-GFP) or 0.1 (pETAβ42-GFP) mM isopropyl-β-D-thiogalactoside (IPTG) was added to the medium to induce overexpression of the reporter. […] The isolated cells were re-grown and screened for additional rounds in an identical manner until the desired enrichment in high-fluorescence clones was achieved.
For SOD1 or SOD1-GFP production, BL21(DE3) (Novagen, USA) or Origami 2(DE3) cells (Novagen, USA) were transformed with the corresponding SOD1- or SOD1-GFP-encoding vector, either with the appropriate pSICLOPPS vector or alone. […]
Bacterial cells corresponding to 1 mL culture with OD600=1 were harvested by centrifugation and re-suspended in 100 μL phosphate-buffered saline (PBS), transferred to a 96-well FLUOTRAC 200 plate (Greiner Bio One International, Austria), and their fluorescence was measured using a TECAN Safire II-Basic plate reader (Tecan, Austria). Excitation was set at 488 nm and emission was measured at 510 nm.

[3] = after the second round of bacterial sorting for enhanced Aβ42-GFP fluorescence
[4] = after the second round of bacterial sorting for enhanced Aβ42-GFP fluorescence, relative to total pentapeptide reads
[5] = after the second round of bacterial sorting for enhanced Aβ42-GFP fluorescence, relative to total peptide reads
[6] = pSICLOPPS-NuX1X2X3-X5 vectors after the second round of bacterial sorting for enhanced Aβ42-GFP fluorescence
[7] = Table 4, hexapeptides, after second round of sorting
[8] = Table 2, after second round of sorting

T2 sequence (P00441 whole entry A5V): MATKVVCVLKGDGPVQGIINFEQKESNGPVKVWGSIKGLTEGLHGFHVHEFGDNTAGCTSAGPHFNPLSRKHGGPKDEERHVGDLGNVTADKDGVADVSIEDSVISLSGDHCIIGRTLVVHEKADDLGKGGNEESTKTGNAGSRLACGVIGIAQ

Row | Substance | Reads/Total hexapeptide reads (%) ([1]; Table 4) | Reads/Total peptide reads (%) ([1]; Table 4) | Number of reads [1, 7] | further results
1 | AβC5-481 (TVFGR; cyclic pentapeptide) | – | – | – | Reads/Total TXXXR reads (%) [1, 3]: 0.003%; Reads/Total pentapeptide reads (%) [1, 4]: 0.001%; Reads/Total peptide reads (%) [1, 5]: 0.001%; Number of reads [1, 6]: 50
2 | AβC5-483 (TRVGR; cyclic pentapeptide) | – | – | – | Reads/Total TXXXR reads (%) [1, 3]: 0.003%; Reads/Total pentapeptide reads (%) [1, 4]: 0.001%; Reads/Total peptide reads (%) [1, 5]: 0.001%; Number of reads [1, 6]: 50
3 | TCSWFD [AβC6-27] | 0.138 | 0.014 | 623 | –
4 | TIFWFD [AβC6-50] | 0.050 | 0.005 | 227 | –
5 | TKEYFD [AβC6-21] | 0.272 | 0.027 | 1,231 | –
6 | TLCWLN [AβC6-32] | 0.101 | 0.010 | 455 | –
7 | TLDFFD [AβC6-63] | 0.025 | 0.003 | 114 | –
8 | TLEFFD [AβC6-4] | 5.978 | 0.597 | 27,057 | –
9 | TLEYFM [AβC6-28] | 0.123 | 0.012 | 556 | –
10 | TLEYLW [AβC6-49] | 0.051 | 0.005 | 233 | –
11 | TLGWLD [AβC6-42] | 0.068 | 0.007 | 307 | –
12 | TLHWFE [AβC6-26] | 0.143 | 0.014 | 647 | –
13 | TLKWLN [AβC6-10] | 2.434 | 0.243 | 11,016 | –
14 | TLLIRW [AβC6-8] | 2.902 | 0.290 | 13,135 | –
15 | TLSVFD [AβC6-57] | 0.039 | 0.004 | 176 | –
16 | TLSWFN [AβC6-59] | 0.031 | 0.003 | 141 | –
17 | TLSWYD [AβC6-47] | 0.053 | 0.005 | 239 | –
18 | TLWVFD [AβC6-37] | 0.078 | 0.008 | 355 | –
19 | TPALFD [AβC6-68] | 0.022 | 0.002 | 101 | –
20 | TPALVD [AβC6-53] | 0.046 | 0.005 | 208 | –
21 | TPARFD [AβC6-78] | 0.012 | 0.001 | 55 | –
22 | TPAWFD [AβC6-2] | 24.555 | 2.453 | 111,132 | –
23 | TPAWLD [AβC6-79] | 0.012 | 0.001 | 55 | –
24 | TPAWSD [AβC6-69] | 0.019 | 0.002 | 86 | –
25 | TPCWFD [AβC6-46] | 0.056 | 0.006 | 252 | –
26 | TPGLVD [AβC6-58] | 0.031 | 0.003 | 142 | –

Row | Substance | Reads/Total hexapeptide reads (%) ([1]; Table 4) | Reads/Total peptide reads (%) ([1]; Table 4) | Number of reads [1, 7] | further results
27 | TPGWFD [AβC6-55] | 0.040 | 0.004 | 180 | –
28 | TPIVFD [AβC6-36] | 0.085 | 0.008 | 384 | –
29 | TPLWFN [AβC6-40] | 0.070 | 0.007 | 316 | –
30 | TPPWFD [AβC6-44] | 0.064 | 0.006 | 289 | –
31 | TPSWFD [AβC6-65] | 0.023 | 0.002 | 105 | –
32 | TPVLVD [AβC6-48] | 0.052 | 0.005 | 236 | –
33 | TPVWFD [AβC6-1] | 29.151 | 2.912 | 131,935 | –
34 | TPVWLD [AβC6-80] | 0.012 | 0.001 | 55 | –
35 | TSVEYE [AβC6-41] | 0.068 | 0.007 | 307 | –
36 | TVTWFD [AβC6-6] | 3.778 | 0.377 | 17,100 | –
37 | cyclo-SHSPT [AβC5-387] | – | – | – | Reads/Total SASPT-like reads (%) ([1]; Table 2): 0.337%; Reads/Total pentapeptide reads (%) ([1]; Table 2): 0.002%; Reads/Total peptide reads (%) ([1]; Table 2): 0.002%; Number of reads [1, 8]: 89
38 | cyclo-SICPT [AβC5-216] | – | – | – | Reads/Total SASPT-like reads (%) ([1]; Table 2): 1.957%; Reads/Total pentapeptide reads (%) ([1]; Table 2): 0.013%; Reads/Total peptide reads (%) ([1]; Table 2): 0.011%; Number of reads [1, 8]: 516
39 | cyclo-SITPT [AβC5-380] | – | – | – | Reads/Total SASPT-like reads (%) ([1]; Table 2): 0.356%; Reads/Total pentapeptide reads (%) ([1]; Table 2): 0.002%; Reads/Total peptide reads (%) ([1]; Table 2): 0.002%; Number of reads [1, 8]: 94
40 | cyclo-TASFW (cyclic) | – | – | – | SOD1(A4V)-GFP fluorescence of E. coli cells [2]: highest levels of cellular SOD1(A4V)-GFP fluorescence
41 | cyclo-TDQR (cyclic) [AβC4B-9] | – | – | – | Normalized read number (%) [1]: 2.09%
42 | cyclo-TFSMW (cyclic) | – | – | – | SOD1(A4V)-GFP fluorescence of E. coli cells [2]: highest levels of cellular SOD1(A4V)-GFP fluorescence
43 | cyclo-TLGR (cyclic) [AβC4B-86] | – | – | – | Normalized read number (%) [1]: 0.1697%
44 | cyclo-TLIR (cyclic) [AβC4B-41] | – | – | – | Normalized read number (%) [1]: 0.775%
45 | cyclo-TLWR (cyclic) [AβC4B-80] | – | – | – | Normalized read number (%) [1]: 0.2568%
46 | cyclo-TRGR [AβC4-34] | – | – | – | Normalized read number (%) [1]: 0.3047%
47 | cyclo-TRRR (cyclic) [AβC4-41] | – | – | – | Normalized read number (%) [1]: 0.2467%
48 | cyclo-TTCR (cyclic) [AβC4-9] | – | – | – | Normalized read number (%) [1]: 1.248%
49 | cyclo-TTGR [AβC4-35] | – | – | – | Normalized read number (%) [1]: 0.295%
50 | cyclo-TTRR (cyclic) [AβC4-11] | – | – | – | Normalized read number (%) [1]: 1.2%
51 | cyclo-TTSR (cyclic) [AβC4-31] | – | – | – | Normalized read number (%) [1]: 0.3241%
